In PMC7031059:
Substitutions are numbered along the chain they refer to.

Target: PpTCP20-GST (Prunus persica var. nectarina cv. …, UniProt A0A251Q833 1-310)
Assay: EMSA

B1: 6mT (GGGCCC to AAATTT) (dsDNA)
DNA 1: GGTAAATTTAATCAAGTGACATGACAGCGA
DNA 2: TCGCTGTCATGTCACTTGATTAAATTTACC
binding result: no binding

B2: 5mT2 (GGG to TTT) (dsDNA)
DNA 1: CATGTGTCATGGTTTTCTCAATCAAGTGGC
DNA 2: GCCACTTGATTGAGAAAACCATGACACATG
binding result: no binding

B3: 5T2 (dsDNA)
DNA 1: B2 DNA 1 with T14G, T15G, T16G
DNA 2: B2 DNA 2 with A15C, A16C, A17C
binding result: binds

B4: ABF2-F (PpABF2 promoter TBS) (dsDNA)
DNA 1: ACCTAACCTAAGTGGGACCATGCCCTTTTT
DNA 2: AAAAAGGGCATGGTCCCACTTAGGTTAGGT
binding result: binds

B5: 6T (PpDAM6 promoter site-II) (dsDNA)
DNA 1: GGTGGGCCCAATCAAGTGACATGACAGCGA
DNA 2: TCGCTGTCATGTCACTTGATTGGGCCCACC
binding result: binds
